Measured values as given in US20050048060A1 (VLAAMS INTERUNIVERSITAIR INSTITUUT, published 2005).

Molecular target: T1, carcinoembryonic antigen (CEA) expressed on LS 174T cells (human, UniProt P06731 35-685)
T1 sequence (looked up): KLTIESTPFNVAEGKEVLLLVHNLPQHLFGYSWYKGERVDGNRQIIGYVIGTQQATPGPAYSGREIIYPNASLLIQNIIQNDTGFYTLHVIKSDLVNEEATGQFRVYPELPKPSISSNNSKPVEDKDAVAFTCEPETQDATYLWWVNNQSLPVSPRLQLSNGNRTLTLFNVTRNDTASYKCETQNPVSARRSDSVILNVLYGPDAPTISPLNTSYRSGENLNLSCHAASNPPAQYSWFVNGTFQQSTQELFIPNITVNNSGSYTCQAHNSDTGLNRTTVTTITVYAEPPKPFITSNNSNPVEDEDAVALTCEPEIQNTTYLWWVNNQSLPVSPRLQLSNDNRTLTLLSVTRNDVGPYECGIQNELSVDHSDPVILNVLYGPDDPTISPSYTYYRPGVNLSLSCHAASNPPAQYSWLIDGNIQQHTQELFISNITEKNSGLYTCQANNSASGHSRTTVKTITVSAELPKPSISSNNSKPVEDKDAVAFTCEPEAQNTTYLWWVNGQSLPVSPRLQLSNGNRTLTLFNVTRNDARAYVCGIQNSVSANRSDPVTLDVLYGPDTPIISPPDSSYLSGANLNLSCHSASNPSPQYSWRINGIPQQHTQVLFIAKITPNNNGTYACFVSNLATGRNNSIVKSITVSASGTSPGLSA
Assay: cell-based or functional assay

B1: cAb-CEA5-βL conjugate (other)
chain: QVQLVESGGGSVQAGGSLRLSCAASGDTYGSYWMGWFRQAPGKEREGVAAINRGGGYTVYADSVKGRFTISRDTAKNTVYLQMNSLRPDDTADYYCAASGVLGGLHEDWFNYWGQGTQVTVSSAHHSEDPSSKAPKAPMGTPVSEKQLAEVVANTITPLMKAQSVPGMAVAVIYQGKPHYYTFGKADIAANKPVTPQTLFELGSISKTFTGVLGGDAIARGEISLDDAVTRYWPQLTGKQWQGIRMLDLATYTAGGLPLQVPDEVTDNASLLRFYQNWQPQWKPGTTRLYANASIGLFGALAVKPSGMPYEQAMTTRVLKPLKLDHTWINVPKAEEAHYAWGYRDGKAVRVSPGMLDAQAYGVKTNVQDMANWVMANMAPENVADASLKQGIALAQSRYWRIGSMYQGLGWEMLNWPVEANTVVEGSDSKVALAPLPVAEVNPPAPPVKASWVHKTGSTGGFGSYVAFIPEKQIGIVMLANTSYPNPARVEAAYHILEALQHHHHHH
- concentration of 125I-labelled conjugate in LS 174T tumor xenografts against other tissues in nude mice: > 10 fold
